The chains are these.
T1: cynomolgus tissue factor (cynomolgus TF, Sino Bio #90885-C08H) (cynomolgus monkey, UniProt P13726 33-251 (human entry))
T1 construct: bought recombinant antigen; also called cyno TF
T1 chain: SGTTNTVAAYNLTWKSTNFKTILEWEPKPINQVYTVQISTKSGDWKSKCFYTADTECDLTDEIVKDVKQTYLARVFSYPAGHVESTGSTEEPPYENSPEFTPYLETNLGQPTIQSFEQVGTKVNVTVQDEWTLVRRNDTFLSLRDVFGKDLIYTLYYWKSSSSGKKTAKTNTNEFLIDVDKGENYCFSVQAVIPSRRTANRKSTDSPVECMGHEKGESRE

B1: Conjugate 7: 2900-A02 F241/F404 LP2 (antibody, human IgG1, kappa)
heavy: MEVQLVESGGGLVQPGGSLRLSCAASGFTISGYIIHWVRQAPGKGLEWVGYIDPSNGYTYYADSVKGRFTISADTSKNTAYLQMNSLRAEDTAVYYCARDDQSLSSPFDYWGQGTLVTVSSASTKGPSVFPLAPSSKSTSGGTAALGCLVKDYFPEPVTVSWNSGALTSGVHTFPAVLQSSGLYSLSSVVTVPSSSLGTQTYICNVNHKPSNTKVDKKVEPKSCDKTHTCPPCPAPELLGGPSVLFPPKPKDTLMISRTPEVTCVVVDVSHEDPEVKFNWYVDGVEVHNAKTKPREEQYNSTYRVVSVLTVLHQDWLNGKEYKCKVSNKALPAPIEKTISKAKGQPREPQVYTLPPSREEMTKNQVSLTCLVKGFYPSDIAVEWESNGQPENNYKTTPPVLDSDGSFLYSKLTVDKSRWQQGNVFSCSVMHEALHNHYTQKSLSLSPGK
light: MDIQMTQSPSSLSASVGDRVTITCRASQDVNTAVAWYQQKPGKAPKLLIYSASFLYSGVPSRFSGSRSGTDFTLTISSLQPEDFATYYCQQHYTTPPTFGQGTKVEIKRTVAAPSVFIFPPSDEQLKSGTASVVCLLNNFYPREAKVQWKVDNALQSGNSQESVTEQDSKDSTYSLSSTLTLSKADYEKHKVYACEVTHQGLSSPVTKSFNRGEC
modifications: pAMF at F241 and F404 (EU), each linked to LP2 (DBCO-beta-Glucuronide-PEG12-Exatecan)
notes: antibody-drug conjugate, DAR about 4; also called Trastuzumab LC SerOpt
B2: SRP2799-A05 (antibody, IgG1, V domains shown)
VH: EVQLVESGGGLVQPGGSLRLSCAASGFNISSYWIHWVRQAPGKGLEWVGYIDPYSGSTYYADSVKGRFTISADTSKNTAYLQMNSLRAEDTAVYYCARSDYYYVDEYMDYWGQGTLVTVSS
VL: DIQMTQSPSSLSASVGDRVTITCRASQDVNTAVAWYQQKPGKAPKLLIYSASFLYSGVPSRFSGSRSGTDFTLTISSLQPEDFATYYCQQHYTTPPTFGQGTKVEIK
notes: also called SRP2799-A05 (parent)
B3: SRP2799-B03 (antibody, IgG1, V domains shown)
VH: EVQLVESGGGLVQPGGSLRLSCAASGFNISDYWIHWVRQAPGKGLEWVGFIDPYNGYTNYADSVKGRFTISADTSKNTAYLQMNSLRAEDTAVYYCARGYGSWPDYLDYWGQGTLVTVSS
VL: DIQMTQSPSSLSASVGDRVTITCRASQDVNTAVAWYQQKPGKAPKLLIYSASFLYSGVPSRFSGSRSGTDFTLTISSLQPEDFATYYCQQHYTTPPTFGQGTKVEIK
notes: also called SRP2799-B03 (parent)
B4: SRP2799-B06 (antibody, IgG1, V domains shown)
VH: EVQLVESGGGLVQPGGSLRLSCAASGFNISDYNIHWVRQAPGKGLEWVGYIDPSNGYTYYADSVKGRFTISADTSKNTAYLQMNSLRAEDTAVYYCARDDQSVSSPFDYWGQGTLVTVSS
VL: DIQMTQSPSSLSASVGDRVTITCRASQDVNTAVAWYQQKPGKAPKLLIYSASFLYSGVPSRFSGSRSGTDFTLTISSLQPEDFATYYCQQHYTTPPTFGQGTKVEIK
notes: also called SRP2799-B06 (parent)
B5: 2842-B01 HC1/LC1 (antibody, V domains shown)
VH: QVQVVESGGGLVKPGGSLRLSCAASGFSISSYDMSWIRQAPGKGLEWIGIIGSNGRTYYADSVKGRFTISRNTNENTVYLQMNSLRAEDTAVYYCARGLYDGTGNIWGQGTLVTVSS
VL: DLQMTQSPSSLSASVGDRVTITCRASQSVYGNNWLSWYQQKPGKAPKLLIYGASKLASGVPSRFSGSGSGTQFTLTISSLQPEDFATYYCQGTYYSGDWYFAFGQGTKVEIK
notes: humanized rabbit antibody, variable regions fused to human IGHG1 and IGKC
B6: 2842-B01 HC1/LC2 (antibody, V domains shown)
VH: B5 VH
VL: ELVMTQSPPTLSLSPGERVTLSCRASQSVYGNNWLSWYQQKPGQAPRLLIYGASKLATSIPARFSGSGSGTQFTLTISSLQPEDFAVYYCQGTYYSGDWYFAFGQGTKVEIK
notes: as for B5
B7: SRP2901-D03 (antibody, V domains shown)
VH: B5 VH with Q1E, V4L, K13Q, I37V, A60P, N72D, T73N, N74S, E75K, Y79T
VL: B5 VL
notes: humanized rabbit antibody, variable regions fused to human IGHG1 and IGKC; also called 2842-B01 HC3/LC1
B8: SRP2901-E03 (antibody, V domains shown)
VH: B5 VH with Q1E, V4L, K13Q, I37V, A60P, N72D, T73N, N74S, E75K, Y79T
VL: B6 VL
notes: humanized rabbit antibody, variable regions fused to human IGHG1 and IGKC; also called 2842-B01 HC3/LC2
B9: SRP2901-F01 (antibody, V domains shown)
VH: B5 VH
VL: B5 VL with L2I, R24Q, Q72D, Q105G
notes: humanized rabbit antibody, variable regions fused to human IGHG1 and IGKC; also called 2842-B01 HC1/LC3
B10: SRP2901-B05 (antibody, V domains shown)
VH: QVQVQESGPGLVKPPGTLSLTCAVSGFSLSYYGVSWVRQPPGKGLEWIGTIDSSGRTYYNPSLKSRVTISNDNAPNTVSLKLSSVTAADTAVYYCARDFYGWNSGALDIWGQGTLVTVSS
VL: DLQLTQSPSTLSASVGDRVTITCRASQSVYSNKYLSWYQQKPGKAPKLLIYKASTLASGVPSRFSGSGSGTEFTLTISSLQPDDFATYYCAAAYSDDSDTAFGQGTKVEIK
notes: humanized rabbit antibody, variable regions fused to human IGHG1 and IGKC; also called 2842-G04 HC2/LC2

Positions count from the first letter of the chain named.

The target in the first assay is T1, cynomolgus tissue factor (cynomolgus …). The assay is described as follows: Biacore SPR kinetics, ADC captured on anti-Fc, 1:1 Langmuir fit. Here is the method:
(§1) Anti-Fc polyclonal antibodies were immobilized onto a CM4 chip (Cytiva #BR100534) using amine coupling chemistry (Human Antibody Capture Kit, Cytiva #BR100839). The immobilization steps were carried out at a flow rate of […] in 1×HBS-EP+buffer (Cytiva #BR100669). The sensor surfaces were activated for 7 min with a mixture of NHS (0.05 M) and EDC (0.2 M). The Anti-Fc antibodies were injected over all 4 flow cells at a concentration of 25 μg/ml in 10 mM sodium acetate, pH 4.5, for 7 min. Ethanolamine (1 M, pH 8.5) was injected for 7 min to block any remaining activated groups. […] Off-rate and kinetic binding experiments were performed at 25° C. using 1×HBS-EP+buffer. Antibodies or ADCs were injected over the anti-Fc surface at a concentration of 3 μg/mL for 12 seconds at a flow rate of 10 μL/min on flow cells 2, 3 and 4, followed by a buffer wash for 30 seconds at the same flow rate. […] After capturing ligand (antibody) on the anti-Fc surface, the analyte (human TF, Lake Pharma; cynomolgus TF, Sino Bio #90885-C08H; mouse TF, R&D Systems #3178-PA) was bound for 180 seconds, followed by a 420 second dissociation phase at a flow rate of 50 μL/min. Between each ligand capture and analyte binding cycle, regeneration was carried out using 2 injections of 10 mM Glycine pH 2.0 for 30 seconds at 30 μL/min, followed by a 30 second buffer wash step. The data was fit with the Biacore T200 Evaluation software, using a 1-1 Langmuir binding model. KD (affinity, nM) was determined as a ratio of the kinetic rate constants calculated from the fits of the association and dissociation phases.
On the technique in general: In SPR one partner is held on a chip, and binding of the other changes the refractive index at the surface.
Turning to B1, the Kd was determined as 1.77 nM, the koff stood at 0.00103 s⁻¹ and the kon worked out at 582000 M⁻¹ s⁻¹.

The target of a further assay is T2, human tissue factor (human TF, Lake Pharma) (human, UniProt P13726 33-251, limits assumed).
T2 construct: bought recombinant antigen; also called CD142
Described as above. Here is the method:
as §1
Regarding B1, binding was put at a Kd of 4.11 nM, the koff came out at 0.00209 s⁻¹ and the kon turned out to be 508000 M⁻¹ s⁻¹.

The target of another assay is T3, tissue factor reagent of the Tissue Factor Activity Assay Kit (Abcam #ab108906) (UniProt P13726 33-295, limits assumed). The assay is described as follows: cell-based or functional assay.
On to B2, for which the “FX conversion (% inhibition), 1000 nM antibody” value (“FX conversion (% inhibition)” for short) stood at 1.12%.

As to B3, the “FX conversion (% inhibition)” value was 2.41%.

In the case of B4, the “FX conversion (% inhibition)” value was -1.01%.

A further assay addresses T3, tissue factor reagent of the Tissue …. The assay is described as follows: cell-based or functional assay. This is another data set of the same source.
As for B5, the “FX conversion (% inhibition)” value is -0.45%.

As to B6, the “FX conversion (% inhibition)” value was -0.99%.

As to B7, the “FX conversion (% inhibition)” value is -1.6%.

Regarding B8, the “FX conversion (% inhibition)” value was -0.84%.

Turning to B9, the “FX conversion (% inhibition)” value turned out to be 0.77%.

Turning to B10, the “FX conversion (% inhibition)” value is 0.62%.

The target of the next assay is T4, human tissue factor on cells (human, UniProt P13726 33-295).
T4 construct: cell-surface TF, transfected (HEK293T-humanTF) or endogenous (tumour lines, keratinocytes); the cell line is named under assay; also called HEK293T-humanTF; TF on BxPC3, primary human keratinocytes, NCI-H292, HCC1954, NCI-H1975
The assay is described as follows: flow cytometry on BxPC3 cells (TF positive), one-site fit of MFI. The text has this:
HEK293T, BxPC3 cells (TF positive) and NCI-H1703 (TF negative) cells were obtained from ATCC (American Type Culture Collection) and maintained in DMEM: F12 (1:1), high glucose (Corning) supplemented with 10% heat-inactivated fetal bovine serum (ThermoScientific), 1× Penicillin/Streptomycin (Corning) and 2 mmol glutamax (Thermo Fisher Scientific). To generate cells that stably expressing human tissue factor (HEK293T-humanTF) or cynomolgus tissue factor (HEK293T-cynoTF), HEK293T cells were transfected with plasmid vectors that contain the corresponding protein sequence and stable clones were selected with puromycin.
For a fluorescence-activated cell sorting (FACS) cell-binding assay, cells were collected by Accutase and counted by the Vi-CELL Cell Viability Analyzersharvested and, then re-suspended in FACS buffer (DPBS buffer supplemented with 1% bovine serum albumin). A total of 200,000 cells in 100 μL were incubated on ice with 100 μL of anti-TF antibodies in each well of a 96-well plate. Cells were washed twice with ice-cold FACS buffer and then incubated on ice for 60 mins with 5 μg/mL Alexa 647-labeled donkey anti-human Fc antibody (Jackson ImmunoResearch). Unstained cells and cells stained with secondary antibody alone were used as controls. Cells were washed twice with FACS buffer and analyzed using a BD FACS Canto system. Geometric mean fluorescence intensities (MFI) were fitted using non-linear regression analysis with one site specific binding equation on GraphPad Prism (GraphPad Software; La Jolla, CA).
For orientation: In flow cytometry, cells or beads pass a laser one at a time.
In the case of B7, the “Bmax (MFI)” value came to 29100 MFI and the Kd came to 0.344 nM.

As to B8, the “Bmax (MFI)” value came out at 35200 MFI and binding was characterised by a dissociation constant (Kd) of 0.386 nM.

Turning to B9, the “Bmax (MFI)” value was 25400 MFI and the Kd worked out at 0.61 nM.

Take B10: the “Bmax (MFI)” value was 42800 MFI and binding was put at a Kd of 0.389 nM.

B2: the “Bmax (MFI)” value amounted to 52700 MFI and binding was characterised by a dissociation constant (Kd) of 26.1 nM.

Regarding B3, the “Bmax (MFI)” value is 45400 MFI and the affinity, expressed as Kd, was 4.7 nM.

On to B4, for which the “Bmax (MFI)” value amounted to 46300 MFI and the dissociation constant (Kd) was 4.1 nM.

The target of the next assay is T1, cynomolgus tissue factor (cynomolgus …). Kind of assay: Biacore SPR, single-point off-rate (100 nM antigen), antibody captured on anti-Fc. Here is the method:
(§2) Anti-Fc polyclonal antibodies were immobilized onto a CM4 chip (Cytiva #BR100534) using amine coupling chemistry (Human Antibody Capture Kit, Cytiva #BR100839). The immobilization steps were carried out at a flow rate of 25 μL/min in 1×HBS-EP+buffer (Cytiva #BR100669). The sensor surfaces were activated for 7 min with a mixture of N-hydroxysuccinimide (NHS, 0.05 M) and 1-ethyl-3-(3-dimethylaminopropyl)-carbodiimide (EDC, 0.2 M). The anti-Fc polyclonal antibodies were injected over all 4 flow cells at a concentration of 25 μg/mL in 10 mM sodium acetate, pH 4.5, for 7 min. Ethanolamine (1 M, pH 8.5) was injected for 7 min to block any remaining activated groups.
(§3) Off-rate and kinetic binding experiments were performed at 25° C. using 1×HBS-EP+buffer. Antibodies were injected over the anti-Fc surface at a concentration of 3 μg/mL for 12 seconds at a flow rate of 10 μL/min on flow cells 2, 3 and 4, followed by a buffer wash for 30 seconds at the same flow rate. Single point off-rate analysis was carried out using an antigen concentration of 100 nM. […] After capturing ligand (antibody) on the anti-Fc surface, the analyte (human TF, Lake Pharma; cynomolgus TF, Sino Bio #90885-C08H; mouse TF, R&D Systems #3178-PA) was bound for 180 seconds, followed by a 420 second dissociation phase at a flow rate of […]. Between each ligand capture and analyte binding cycle, regeneration was carried out using 2 injections of 10 mM glycine pH 2.0 for 30 seconds at 30 μL/min, followed by a 30 second buffer wash step.
In turn, B5 registered a koff of 0.00352 s⁻¹.

For B6, the koff came out at 0.00142 s⁻¹.

As for B7, the koff amounted to 0.00187 s⁻¹.

In the case of B8, the koff came out at 0.000782 s⁻¹. This koff lies about 2.4-fold lower than the previous one.

For B9, the koff turned out to be 0.00117 s⁻¹.

Regarding B10, the koff is 0.0017 s⁻¹. The koff values of the last two molecules are within 1.5-fold of each other.

B2 came in with a koff of 0.0337 s⁻¹.

The molecule B3 registered a koff of 0.00169 s⁻¹.

For the molecule B4, the koff amounted to 0.00166 s⁻¹.

Another assay deals with T2, human tissue factor (human TF, Lake …). The assay is described as above. Here is the method:
as §2, §3
As for B5, the koff came to 0.000727 s⁻¹.

B6 yielded a koff of 0.000691 s⁻¹.

The molecule B7 showed a koff of 0.000416 s⁻¹.

As for B8, the off-rate constant (koff) turned out to be 0.000361 s⁻¹.

For the molecule B9, the koff was 0.00054 s⁻¹. The koff values of the last two molecules are within 1.5-fold of each other.

Molecule B10 yielded a koff of 0.000736 s⁻¹.

In turn, B2 gave a koff of 0.00304 s⁻¹.

For the molecule B3, the koff is 0.00415 s⁻¹.

B4 yielded a koff of 0.00827 s⁻¹.

One may read the Kd as the constant that tells how readily two partners part at equilibrium. Read a low Kd as tighter binding. One may read the koff as a measure of how fast the partners let go of each other. Usually kon stands for the second-order rate constant of association.

(Values after US20250122306A1 (SUTRO BIOPHARMA, published 2025).)
